Experimental findings from patent publication US20180291083A1 (IMMATICS BIOTECHNOLOGIES, published 2018) are described below.

Bounds are passed on as bounds.

The chains are these.
B1: VELDLQRSV (peptide)
peptide: VELDLQRSV
B2: KEYDFGTQL (peptide)
peptide: KEYDFGTQL
B3: AQNLSIIQY (peptide)
peptide: AQNLSIIQY
B4: SQAPAARAF (peptide)
peptide: SQAPAARAF
B5: AEPLVGQRW (peptide)
peptide: AEPLVGQRW
B6: AEYKGRVTL (peptide)
peptide: AEYKGRVTL
B7: SEYADTHYF (peptide)
peptide: SEYADTHYF
B8: SEYSHLTRV (peptide)
peptide: SEYSHLTRV
B9: GENEDNRIGL (peptide)
peptide: GENEDNRIGL
B10: EENPGKFLF (peptide)
peptide: EENPGKFLF
B11: REYEYDLKWEF (peptide)
peptide: REYEYDLKWEF
B12: SEDLAVHLY (peptide)
peptide: SEDLAVHLY
B13: GELGGSVTI (peptide)
peptide: GELGGSVTI
B14: EEEHGKGREY (peptide)
peptide: EEEHGKGREY
B15: TEGKRYFTW (peptide)
peptide: TEGKRYFTW
B16: NEVLASKY (peptide)
peptide: NEVLASKY
B17: REYNEYENI (peptide)
peptide: REYNEYENI
B18: EVDASIFKAW (peptide)
peptide: EVDASIFKAW
B19: TDKSFPNAY (peptide)
peptide: TDKSFPNAY
B20: KEFEQVPGHL (peptide)
peptide: KEFEQVPGHL
B21: AEPGPVITW (peptide)
peptide: AEPGPVITW
B22: YEYDLKWEF (peptide)
peptide: YEYDLKWEF
B23: SENEQRRMF (peptide)
peptide: SENEQRRMF
B24: SESTFDRTF (peptide)
peptide: SESTFDRTF
B25: EEVTDRSQL (peptide)
peptide: EEVTDRSQL
B26: EYDLKWEF (peptide)
peptide: EYDLKWEF
B27: HEIDGKALFL (peptide)
peptide: HEIDGKALFL
B28: TEIFKEHNF (peptide)
peptide: TEIFKEHNF
B29: SESKTVVTY (peptide)
peptide: SESKTVVTY
B30: AEHNFVAKA (peptide)
peptide: AEHNFVAKA
B31: QEIQSLLTNW (peptide)
peptide: QEIQSLLTNW
B32: GEIKEPLEI (peptide)
peptide: GEIKEPLEI
B33: AELLAKELY (peptide)
peptide: AELLAKELY
B34: GENDRLNHTY (peptide)
peptide: GENDRLNHTY
B35: SEKETVAYF (peptide)
peptide: SEKETVAYF
B36: NEFPVIVRL (peptide)
peptide: NEFPVIVRL
B37: EENKPGIVY (peptide)
peptide: EENKPGIVY
B38: GEGAYGKVF (peptide)
peptide: GEGAYGKVF
B39: AENAVSNLSF (peptide)
peptide: AENAVSNLSF
B40: EEPAFNVSY (peptide)
peptide: EEPAFNVSY
B41: SESLPKEAF (peptide)
peptide: SESLPKEAF
B42: GELPAVRDL (peptide)
peptide: GELPAVRDL
B43: DEAQARAAF (peptide)
peptide: DEAQARAAF
B44: GELLGRQSF (peptide)
peptide: GELLGRQSF
B45: VEDGLFHEF (peptide)
peptide: VEDGLFHEF
B46: KELPGVKKY (peptide)
peptide: KELPGVKKY
B47: EENGEVKEL (peptide)
peptide: EENGEVKEL
B48: EEGDTLLHLF (peptide)
peptide: EEGDTLLHLF
B49: TEYPVFVY (peptide)
peptide: TEYPVFVY
B50: EEWMGLLEY (peptide)
peptide: EEWMGLLEY
B51: FEVESLFQKY (peptide)
peptide: FEVESLFQKY
B52: KEIGAAVQAL (peptide)
peptide: KEIGAAVQAL
B53: NEIKVYITF (peptide)
peptide: NEIKVYITF
B54: EEETILHFF (peptide)
peptide: EEETILHFF
B55: AEIKQTEEKY (peptide)
peptide: AEIKQTEEKY
B56: REYEHYWTEL (peptide)
peptide: REYEHYWTEL
B57: EEFETIERF (peptide)
peptide: EEFETIERF
B58: VEIAEAIQL (peptide)
peptide: VEIAEAIQL
B59: RENQVLGSGW (peptide)
peptide: RENQVLGSGW
B60: QENMQIQSF (peptide)
peptide: QENMQIQSF
B61: KEVPRSYEL (peptide)
peptide: KEVPRSYEL

For this experiment, the target named is T1, HLA-B*44:02 (human).
T1 construct: Peptide-receptive MHC class I monomer made by UV cleavage of a UV-sensitive ligand
In words: UV ligand exchange ELISA; exchange yield grade. From the text:
Candidate peptides for T cell based therapies according to the present invention were further tested for their MHC binding capacity (affinity). The individual peptide-MHC complexes were produced by UV-ligand exchange, where a UV-sensitive peptide is cleaved upon UV-irradiation, and exchanged with the peptide of interest as analyzed. Only peptide candidates that can effectively bind and stabilize the peptide-receptive MHC molecules prevent dissociation of the MHC complexes. To determine the yield of the exchange reaction, an ELISA was performed based on the detection of the light chain (β2m) of stabilized MHC complexes. The assay was performed as generally described in Rodenko et al. (Rodenko et al., 2006).
96 well MAXISorp plates (NUNC) were coated over night with 2 ug/ml streptavidin in PBS at room temperature, washed 4× and blocked for 1 h at 37° C. in 2% BSA containing blocking buffer. Refolded HLA-A*02:01/MLA-001 monomers served as standards, covering the range of 15-500 ng/ml. Peptide-MHC monomers of the UV-exchange reaction were diluted 100-fold in blocking buffer. Samples were incubated for 1 h at 37° C., washed four times, incubated with 2 ug/ml HRP conjugated anti-β2m for 1 h at 37° C., washed again and detected with TMB solution that is stopped with […]. Absorption was measured at 450 nm. Candidate peptides that show a high exchange yield (preferably higher than 50%, most preferred higher than 75%) are generally preferred for a generation and production of antibodies or fragments thereof, and/or T cell receptors or fragments thereof, as they show sufficient avidity to the MHC molecules and prevent dissociation of the MHC complexes.
(In general: ELISA stands for enzyme-linked immunosorbent assay.)
As for B1, the peptide exchange yield lay within 20 to 50%. The molecule B2 had a peptide exchange yield of 20 to 50%. B3 had a peptide exchange yield of 20 to 50%. Then B4, with 20 to 50%; and B5, with 50 to 75%; and B6, with greater than 75%. In the case of B7, the peptide exchange yield fell in the range of 50 to 75%. On to B8, for which the peptide exchange yield fell in the range of 20 to 50%. For B9 the value was 20 to 50%; for B10, 50 to 75%. In the case of B11, the peptide exchange yield is 50 to 75%.

B12: the peptide exchange yield was in the range of 20 to 50%. For B13, the peptide exchange yield was 50 to 75%.

Consider B14, for which the peptide exchange yield lay within 20 to 50%. In turn, B15 displayed a peptide exchange yield of 50 to 75%.

Molecule B16 yielded a peptide exchange yield of 10 to 20%. In turn, B17 showed a peptide exchange yield of 20 to 50%.

The molecule B18 displayed a peptide exchange yield of 20 to 50%.

The molecule B19 gave a peptide exchange yield of 10 to 20%. Molecule B20 gave a peptide exchange yield of 20 to 50%. Take B21: the peptide exchange yield was in the range of 50 to 75%. B22 registered a peptide exchange yield of 50 to 75%.

B23: the peptide exchange yield fell in the range of 50 to 75%. B24 displayed a peptide exchange yield of 50 to 75%. As for B25, the peptide exchange yield lay in the range of 20 to 50%. B26 showed a peptide exchange yield of 20 to 50%. As to B27, the peptide exchange yield fell in the range of 20 to 50%. Then B28, with 20 to 50%; and B29, with 50 to 75%. Consider B30, for which the peptide exchange yield was in the range of 50 to 75%. B31 showed a peptide exchange yield of 50 to 75%. The molecule B32 showed a peptide exchange yield of 20 to 50%. B33: the peptide exchange yield lay within 20 to 50%.

With B34, the peptide exchange yield fell in the range of 20 to 50%. B35 gave a peptide exchange yield of 50 to 75%.

B36: the peptide exchange yield was 50 to 75%. For B37, the peptide exchange yield lay within 20 to 50%.

As for B38, the peptide exchange yield was greater than 75%. Take B39: the peptide exchange yield fell in the range of 20 to 50%. As for B40, the peptide exchange yield was in the range of 20 to 50%. For B41 the value was 20 to 50%; for B42, 20 to 50%. As to B43, the peptide exchange yield lay in the range of 20 to 50%. For the molecule B44, the peptide exchange yield lay in the range of 50 to 75%.

Turning to B45, the peptide exchange yield lay within 50 to 75%. With B46, the peptide exchange yield is 20 to 50%. Regarding B47, the peptide exchange yield lay within 20 to 50%. B48: the peptide exchange yield fell in the range of 50 to 75%. In turn, B49 gave a peptide exchange yield of 10 to 20%. For B50 the value was greater than 75%; for B51, 50 to 75%.

Turning to B52, the peptide exchange yield lay in the range of 50 to 75%. Then B53, with 50 to 75%. For B54, the peptide exchange yield fell in the range of 20 to 50%. For B55 the value was 20 to 50%. Molecule B56 came in with a peptide exchange yield of 50 to 75%.

With B57, the peptide exchange yield fell in the range of 20 to 50%. As for B58, the peptide exchange yield was in the range of 50 to 75%. Take B59: the peptide exchange yield lay in the range of 50 to 75%. Regarding B60, the peptide exchange yield lay within 50 to 75%.

Regarding B61, the peptide exchange yield was 20 to 50%.
